Test results: US20110008814A1

Experiments:
[1] = molecular target: mouse IgG, anti-human transferrin monoclonal antibody (mfd. by BIO MATRIX RESEARCH, INC.); assay: human transferrin sandwich ELISA, 1 ng/ml transferrin, luminol emission
[2] = molecular target: mouse IgG, anti-human transferrin monoclonal antibody (mfd. by BIO MATRIX RESEARCH, INC.); assay: human transferrin sandwich ELISA, 100 ng/ml transferrin, luminol emission
[3] = molecular target: mouse IgG, anti-human transferrin monoclonal antibody (mfd. by BIO MATRIX RESEARCH, INC.); assay: direct ELISA on immobilized mouse IgG, ABTS; reference Comparative Examples 1 and 2
[4] = molecular target: mouse IgG, anti-human transferrin monoclonal antibody (mfd. by BIO MATRIX RESEARCH, INC.); assay: human transferrin sandwich ELISA, 100 ng/ml transferrin, 375 ng/ml labeled antibody, ABTS
[5] = molecular target: mouse IgG, anti-human transferrin monoclonal antibody (mfd. by BIO MATRIX RESEARCH, INC.); assay: direct ELISA, mouse IgG immobilized from 10 ng/ml, about 0.8 µg/ml secondary antibody, ABTS
[6] = molecular target: mouse IgG, anti-human transferrin monoclonal antibody (mfd. by BIO MATRIX RESEARCH, INC.); assay: direct ELISA, mouse IgG immobilized from 100 ng/ml, about 0.8 µg/ml secondary antibody, ABTS
[7] = molecular target: mouse IgG, anti-human transferrin monoclonal antibody (mfd. by BIO MATRIX RESEARCH, INC.); assay: human transferrin sandwich ELISA, 100 ng/ml transferrin, ABTS; reference Comparative Example 3
[8] = molecular target: mouse IgG, anti-human transferrin monoclonal antibody (mfd. by BIO MATRIX RESEARCH, INC.); assay: human transferrin sandwich ELISA, 1 ng/ml transferrin, luminol emission; reference Comparative Example 7
[9] = molecular target: mouse IgG, anti-human transferrin monoclonal antibody (mfd. by BIO MATRIX RESEARCH, INC.); assay: human transferrin sandwich ELISA, 100 ng/ml transferrin, luminol emission; reference Comparative Examples 6 to 8
[10] = molecular target: mouse IgG, anti-human transferrin monoclonal antibody (mfd. by BIO MATRIX RESEARCH, INC.); assay: human transferrin sandwich ELISA, 1 ng/ml transferrin, luminol emission; reference horseradish POD-labeled antibodies
[11] = molecular target: mouse IgG, anti-human transferrin monoclonal antibody (mfd. by BIO MATRIX RESEARCH, INC.); assay: human transferrin sandwich ELISA, 100 ng/ml transferrin, 400 ng/ml labeled antibody, ABTS

initial stage emission value [1] [RLU]	initial stage emission value [2] [RLU]	fold of absorbance against the horseradish POD-labeled antibody [3] [times]	absorbance at 405 nm [4]	absorbance at 405 nm [5]	absorbance at 405 nm [6]	fold of absorbance against the horseradish POD-labeled antibody [7] [times]	fold of initial stage emission value against the horseradish POD-labeled antibody [8] [times]	fold of initial stage emission value against the horseradish POD-labeled antibodies [9] [times]	fold of initial stage emission value against the horseradish POD-labeled antibodies [10] [times]	absorbance at 405 nm [11]	Substance
800000	4.2e+06	1.3 to 1.4	1	0.4	1.9	2.2	8	> 18	–	–	POD-labeled anti-mouse Fab′ (goat anti-mouse IgG (H+L) antibody, Bethyl A90-116A, pepsin-digested and reduced to Fab′, labeled with maleimidated POD)
300000	3.5e+06	–	–	–	–	–	–	> 14	> 3	–	POD-labeled anti-mouse IgG (goat anti-mouse IgG (H+L) antibody, Bethyl A90-116A, reduced and labeled with maleimidated POD)
–	–	–	–	0.3	1.4	–	–	–	–	0.45	Peroxidase-conjugated AffiniPure F(ab′)2 Fragment Goat Anti-mouse IgG (H+L) (mfd. by Jackson ImmunoResearch Labs.)
100000	–	–	–	0.3	1.4	–	–	–	–	–	Peroxidase-conjugated AffiniPure Goat Anti-mouse IgG (H+L) (mfd. by Jackson ImmunoResearch Labs.) (antibody)
